The results in this text go back to patent US20030082173A1 (ST JUDE CHILDREN S RESEARCH HOSPITAL, published 2003).

For the assay, the target named is T1, calcium-signal modulating cyclophilin ligand (CAML), human, full length (human, UniProt P49069 1-296).
T1 construct: mature; In the co-immunoprecipitation it was expressed from pBJ5 in 293T cells
T1 sequence (looked up): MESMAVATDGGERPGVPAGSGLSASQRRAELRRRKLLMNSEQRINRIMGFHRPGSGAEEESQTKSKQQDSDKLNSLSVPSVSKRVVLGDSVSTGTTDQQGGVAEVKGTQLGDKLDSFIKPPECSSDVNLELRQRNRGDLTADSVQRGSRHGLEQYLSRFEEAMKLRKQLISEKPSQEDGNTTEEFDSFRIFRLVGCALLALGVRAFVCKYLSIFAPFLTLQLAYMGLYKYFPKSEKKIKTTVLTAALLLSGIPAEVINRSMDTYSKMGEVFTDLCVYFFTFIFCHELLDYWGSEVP
As to the kind of experiment: yeast two-hybrid screen of a human B-lymphocyte cDNA library with full-length CAML as bait.

B1: Transmembrane Activator and CAML-Interactor protein TACI-1 (human, full length, 293 amino acids) (receptor)
chain: MSGLGRSRRGGRSRVDQEERFPQGLWTGVAMRSCPEEQYWDPLLGTCMSCKTICNHQSQRTCAAFCRSLSCRKEQGKFYDHLLRDCISCASICGQHPKQCAYFCENKLRSPVNLPPELRRQRSGEVENNSDNSGRYQGLEHRGSEASPALPGLKLSADQVALVYSTLGLCLCAVLCCFLVAVACFLKKRGDPCSCQPRSRPRQSPAKSSQDHAMEAGSPVSTSPEPVETCSFCFPECRAPTQESAVTPGTPDPTCAGRWGCHTRTTVLQPCPHIPDSGLGIVCVPAQEGGPGA
notes: Untagged full-length protein expressed from pBJ5 on TAg Jurkat T cells for flow cytometry and reporter assays; In the yeast two-hybrid tests it was fused to a GAL4 domain (pACT or pAS1); also called TACI protein; TCB
Take B1: the binding result is “binds”.
